Experimental data published in US20050079543A1.

How the values were obtained:
[1] = molecular target: Stat91L, activated (from IFN-γ-treated C91L or Cmx cells) (human) (UniProt P42224); test: cell-based or functional assay
[2] = molecular target: Stat84, activated (from IFN-γ-treated C84 or Cmx cells) (human) (UniProt P42224); test: cell-based or functional assay
[3] = molecular target: tyrosine phosphorylated Stat91 (human) (UniProt P42224); test: glycerol gradient sedimentation
[4] = molecular target: tyrosine phosphorylated Stat91 (human) (UniProt P42224); test: native gel electrophoresis, Ferguson plots

Stat84, activated (from IFN-γ-treated C84 or Cmx cells) (human), sequence (P42224 2-712 limits assumed): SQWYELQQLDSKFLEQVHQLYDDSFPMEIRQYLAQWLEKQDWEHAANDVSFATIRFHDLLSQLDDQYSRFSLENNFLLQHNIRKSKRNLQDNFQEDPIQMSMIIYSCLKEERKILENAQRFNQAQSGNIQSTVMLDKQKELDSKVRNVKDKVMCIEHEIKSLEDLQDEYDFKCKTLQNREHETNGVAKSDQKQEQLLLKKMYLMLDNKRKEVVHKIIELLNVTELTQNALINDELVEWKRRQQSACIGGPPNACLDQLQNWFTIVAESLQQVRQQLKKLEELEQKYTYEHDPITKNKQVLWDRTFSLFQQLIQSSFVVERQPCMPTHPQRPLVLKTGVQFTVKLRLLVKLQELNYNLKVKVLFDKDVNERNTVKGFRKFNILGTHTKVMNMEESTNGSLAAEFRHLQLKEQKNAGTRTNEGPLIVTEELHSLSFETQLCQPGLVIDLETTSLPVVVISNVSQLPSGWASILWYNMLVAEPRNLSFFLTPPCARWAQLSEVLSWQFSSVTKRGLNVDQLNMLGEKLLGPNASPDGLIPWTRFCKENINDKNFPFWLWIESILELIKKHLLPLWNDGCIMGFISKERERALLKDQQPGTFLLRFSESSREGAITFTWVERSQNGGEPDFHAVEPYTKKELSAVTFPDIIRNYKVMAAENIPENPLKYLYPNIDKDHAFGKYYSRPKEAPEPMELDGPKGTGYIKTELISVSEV
Stat91L, activated (from IFN-γ-treated C91L or Cmx cells) (human), sequence (P42224 2-750, stated change not applied): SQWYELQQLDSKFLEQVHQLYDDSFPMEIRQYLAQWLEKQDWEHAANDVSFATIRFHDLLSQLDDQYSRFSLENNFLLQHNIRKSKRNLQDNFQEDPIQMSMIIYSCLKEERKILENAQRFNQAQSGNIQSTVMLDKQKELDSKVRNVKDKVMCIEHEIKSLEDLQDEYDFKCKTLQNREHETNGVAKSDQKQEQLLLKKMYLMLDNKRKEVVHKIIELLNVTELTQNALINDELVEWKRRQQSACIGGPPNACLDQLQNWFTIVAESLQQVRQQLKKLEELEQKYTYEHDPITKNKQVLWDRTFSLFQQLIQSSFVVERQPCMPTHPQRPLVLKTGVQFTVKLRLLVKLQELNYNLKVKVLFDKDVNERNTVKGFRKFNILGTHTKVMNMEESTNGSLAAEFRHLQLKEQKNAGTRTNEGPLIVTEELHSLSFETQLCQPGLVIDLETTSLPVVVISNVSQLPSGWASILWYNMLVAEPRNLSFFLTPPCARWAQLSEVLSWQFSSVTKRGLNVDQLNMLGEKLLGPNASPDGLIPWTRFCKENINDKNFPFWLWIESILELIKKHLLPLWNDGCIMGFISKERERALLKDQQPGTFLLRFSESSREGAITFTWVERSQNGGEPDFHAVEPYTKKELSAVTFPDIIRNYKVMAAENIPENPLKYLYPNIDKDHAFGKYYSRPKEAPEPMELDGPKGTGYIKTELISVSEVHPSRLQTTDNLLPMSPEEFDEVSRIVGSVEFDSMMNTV

Row | fusion protein concentration that promoted heterodimer formation (gel mobility shift) [1] | fusion protein concentration that promoted heterodimer formation (gel mobility shift) [2] | native molecular weight [3] | native molecular weight [4] | Substance
1 | 0.5 to 5 µM | 0.5 to 5 µM |  |  | GST-91SH2 (glutathione-S-transferase fused to the Stat91 SH2 domain, amino acids 573 to 672) (from UniProt P42224 573-672)
2 |  |  | 180 kD | 180 kD | tyrosine phosphorylated Stat91 (from UniProt P42224 2-750)
